Experimental data published in publication PMC4231325 (Scientific Reports, 2014).

Target: the molecule itself
Assay: AUC

B1: SYCE3 (purified recombinant protein) (natural protein, Mus musculus, UniProt B5KM66 1-88, looked up)
chain: MADSDPGERSYDNMLKMLSDLNKDLEKLLEEMEKISVQATWMAYDMVVMRTNPTLAESMRRLEDAFLNCKEEMEKNWQELLTETKRKQ
  stoichiometry N: 2
